This note sets out measurements from PMC3696401.

For this assay, the target named is IRBIT (UniProt Q80SW1). Put plainly: reciprocal co-IP from co-transfected cells. To be noted: reference: wild-type IP3R1; sites S1589,S1755.
UniProt Q80SW1, sequence (Q80SW1 whole entry, looked up): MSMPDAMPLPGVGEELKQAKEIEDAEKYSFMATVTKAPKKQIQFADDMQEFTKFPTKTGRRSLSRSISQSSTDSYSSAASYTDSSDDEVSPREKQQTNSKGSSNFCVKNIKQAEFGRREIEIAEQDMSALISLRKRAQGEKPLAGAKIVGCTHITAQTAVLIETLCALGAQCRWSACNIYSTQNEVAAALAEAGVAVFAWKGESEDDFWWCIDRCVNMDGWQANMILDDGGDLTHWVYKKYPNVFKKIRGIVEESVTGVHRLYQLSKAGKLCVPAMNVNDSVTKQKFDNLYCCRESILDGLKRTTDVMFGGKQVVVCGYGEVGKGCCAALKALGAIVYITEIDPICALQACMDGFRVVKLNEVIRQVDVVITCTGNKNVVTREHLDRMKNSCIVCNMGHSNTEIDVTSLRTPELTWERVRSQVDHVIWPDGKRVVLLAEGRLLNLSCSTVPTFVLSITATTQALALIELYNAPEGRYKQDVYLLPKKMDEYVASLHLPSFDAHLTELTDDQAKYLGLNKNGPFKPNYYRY

In the case of “IP3R1 (from UniProt P29994-3) S1589A/S1755A (AA)”, the “binding against the reference” value is on record as “stronger”.
